Data reported in patent US20150274841A1.

Legend:
[1] = biological target: human plasma kallikrein (PKal) (human), P03952; assay: Ki,app; Fab inhibition of PKal cleavage of a substrate peptide, Morrison fit; conditions: remark: other sources report otherwise
[2] = biological target: human plasma kallikrein (PKal) (human), P03952; assay: enzyme inhibition assay: rate (F/s) of substrate peptide cleavage by PKal against [Fab] (nM), fitted to the Morrison equation; apparent Ki (Ki,app); Table 3 prints 2.5 nM; conditions: remark: other sources report otherwise

Sequence of human plasma kallikrein (PKal) (human), P03952 (P03952 20-638 limits assumed): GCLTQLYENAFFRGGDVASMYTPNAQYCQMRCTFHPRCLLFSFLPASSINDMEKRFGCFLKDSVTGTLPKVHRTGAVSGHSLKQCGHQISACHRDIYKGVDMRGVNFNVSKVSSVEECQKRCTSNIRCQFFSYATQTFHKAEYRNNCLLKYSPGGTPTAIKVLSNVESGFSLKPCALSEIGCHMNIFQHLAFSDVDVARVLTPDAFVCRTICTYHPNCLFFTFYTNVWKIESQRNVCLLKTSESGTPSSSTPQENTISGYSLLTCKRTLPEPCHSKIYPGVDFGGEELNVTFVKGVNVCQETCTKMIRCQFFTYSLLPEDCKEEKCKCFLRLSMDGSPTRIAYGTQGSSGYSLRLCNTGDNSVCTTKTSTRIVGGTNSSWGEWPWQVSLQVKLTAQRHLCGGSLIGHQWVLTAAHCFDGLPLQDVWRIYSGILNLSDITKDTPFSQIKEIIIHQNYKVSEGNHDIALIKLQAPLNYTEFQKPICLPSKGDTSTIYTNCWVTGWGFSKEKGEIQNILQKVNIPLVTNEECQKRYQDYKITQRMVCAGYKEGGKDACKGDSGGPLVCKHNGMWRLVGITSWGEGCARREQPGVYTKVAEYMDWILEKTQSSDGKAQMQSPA

Ki [1]: 2.5 nM
Ki [2]: 6.54 nM
B1: M0162-A04 (Fab, V domains shown)
VH: EVQLLESGGGLVQPGGSLRLSCAASGFTFSHYIMMWVRQAPGKGLEWVSGIYSSGGITVYADSVKGRFTISRDNSKNTLYLQMNSLRAEDTAVYYCAYRRTGIPRRDAFDIWGQGTMVTVSS
VL: DIQMTQSPSTLSASVGDRVTITCRASQSISSWLAWYQQKPGKAPNLLIYKASTLESGVPSRFSGSGSGTEFTLTISSLQPDDFATYYCQQYNTYWTFGQGTKVEIK
